The source of these data is patent publication US20250296992A1 (Genmab, published 2025).

In assay [1] the target is T1, human SLITRK6 extracellular domain linked to his tag (human, UniProt Q9H5Y7 27-608).
T1 construct: extracellular domain; also called huSLITRK6; Hu SLITRK6; not shown: his tag
The assay is described as follows: ELISA, coated antigen.

Assay [2] concerns the target T2, cynomolgus monkey SLITRK6 extracellular domain linked to his tag (cynomolgus monkey, UniProt G7PVK4 27-608).
T2 construct: extracellular domain; also called cynoSLITRK6; Cyno SLITRK6; not shown: his tag
Put plainly: ELISA, coated antigen.

The target of assay [3] is T3, rat SLITRK6 (rat, UniProt D3ZP44 27-607).
T3 construct: extracellular domain; not shown: his tag
The assay is described as follows: ELISA, coated antigen.

Assay [4] concerns the target T4, human SLITRK6 on cells (human, UniProt Q9H5Y7 27-841).
T4 construct: whole, on cells
Put plainly: flow cytometry on 293F-huSLITRK6 cells, PE-conjugated anti-human Fc. A general note: In flow cytometry, cells or beads pass a laser one at a time.
Procedure: (§1) Specifically, cells were incubated with 50 μL of mAbs or ADCs in series dilutions in PBS containing 1% BSA at 4° C. for 30 min. The cells were washed twice with PBS containing 1% BSA, stained with PE-conjugated anti human Fc in PBS containing 1% BSA and then incubated at 4° C. for 20 min. After that the cells were washed twice with PBS and analyzed by a flow cytometer.

For assay [5], the target named is T4, human SLITRK6 on cells. Put plainly: flow cytometry on RT112/84 cells.
Procedure: (§2) The binding activity of mAbs was evaluated by flow cytometer (Beckman, Cytoflex). Specifically, cells were incubated with 50 μL of mAbs or ADCs in series dilutions in PBS containing 1% BSA at 4° C. for 30 minutes. The cells were washed twice with PBS containing 1% BSA, stained with PE-conjugated anti human Fc in PBS containing 1% BSA and then incubated at 4° C. for 20 min. After that the cells were washed twice with PBS and analyzed by a flow cytometer.
For assay [6], the target named is T4, human SLITRK6 on cells. Put plainly: flow cytometry on CHP-212 cells.
Procedure: as §2
Assay [7] deals with T4, human SLITRK6 on cells. Put plainly: flow cytometry on SW780 cells.
Procedure: (§3) The binding activity of mAbs and ADCs was evaluated by flow cytometer (Beckman, Cytoflex). Specifically, cells were incubated with 50 μL of mAbs or ADCs in series dilutions in PBS containing 1% BSA at 4° C. for 30 min. The cells were washed twice with PBS containing 1% BSA, stained with PE-conjugated anti human Fc in PBS containing 1% BSA and then incubated at 4° C. for 20 min. After that the cells were washed twice with PBS and analyzed by a flow cytometer.
Assay [8] deals with T4, human SLITRK6 on cells. The assay is described as follows: flow cytometry on 293F-SLITRK6-C9 cells.
Procedure: as §3
For assay [9], the target named is T4, human SLITRK6 on cells. The assay is described as follows: flow cytometry on RT4 cells, PE-conjugated anti-human Fc.
Procedure: as §1
In assay [10] the target is T1, human SLITRK6 extracellular domain …. Put plainly: BLI binning on huSLITRK6-his; Ab1 = row antibody first, then Ab2 (competitor) = Sirtratumab.
Procedure: (§4) Epitope binning was characterized by the bio-layer interferometry (BLI). 100 nM of human SLITRK6′ extracellular domain linked to his tag was immobilized on anti-his biosensor tips (Fortebio). The sensors were rinsed with the buffer (50 mM Tris-AcOH, pH 6 or 7.5, 0.05% v/v surfactant P20) for 30 seconds to remove the unbound molecules, then dipped in the 100 nM of antibody 1 solutions for 180 seconds and interspersed by a rinsing step in the buffer solution for 300 seconds. After that, the sensors were dipped in the 100 nM of antibody 2 solutions. The epitope cluster was calculated using ForteBio Data Acquisition 6.3 software.
Assay [11] shares this target. Put plainly: BLI binning on huSLITRK6-his; Ab1 = row antibody first, then Ab2 (competitor) = phA290.
Procedure: as §4
For assay [12] the target is unchanged. The assay is described as follows: BLI binning on huSLITRK6-his; Ab1 = row antibody first, then Ab2 (competitor) = hu1H2-13.
Procedure: as §4
Assay [13] deals with T4, human SLITRK6 on cells. Put plainly: flow cytometry on CHP-212 cells, PE-conjugated anti-human Fc.
Procedure: as §1
In assay [14] the target is T4, human SLITRK6 on cells. Put plainly: flow cytometry on SW780 cells. This is another data set of the same source.
Procedure: as §2
Assay [15] has as its target T4, human SLITRK6 on cells. The assay is described as follows: flow cytometry on RT4 cells.
Procedure: as §3
For assay [16], the target named is T4, human SLITRK6 on cells. The assay is described as follows: flow cytometry on SW780 cells, PE-conjugated anti-human Fc.
Procedure: as §3
Assay [17] has as its target T4, human SLITRK6 on cells. Put plainly: flow cytometry on CHP-212 cells. This is another data set of the same source.
Procedure: as §3
The target in assay [18] is T1, human SLITRK6 extracellular domain …. Put plainly: BLI; antigen-his on anti-his tips, antibody or ADC as analyte; 1:1 fit. Background: Biolayer interferometry detects binding as a change in optical thickness at a sensor tip.
Procedure: (§5) Binding kinetic of antibody-antigen was characterized by the bio-layer interferometry (BLI). 100 nM of SLITRK6′ extracellular domain linked to his tag was immobilized on anti-his biosensor tips (Fortebio). The sensors were rinsed with the buffer (50 mM Tris-AcOH, pH 6 or 7.5, 0.05% v/v surfactant P20) for 10 min to remove the unbound molecules, then dipped in the antibody solutions at different concentrations for 180 seconds and interspersed by a rinsing step in the buffer solution for 300 seconds. Binding affinity was calculated using ForteBio Data Acquisition 6.3 software (ForteBio) and was derived by fitting the kinetic data to a 1:1 Langmuir binding model utilizing global fitting algorithms. The dissociation or association equilibrium constant KD was calculated from the binding rate constants as KD=koff/kₒₙ (where koff and kₒₙ represent the dissociation kinetic constant and the association kinetic constant, respectively).
In assay [19] the target is T2, cynomolgus monkey SLITRK6 extracellular …. The assay is described as above.
Procedure: as §5
The target in assay [20] is T5, mouse SLITRK6 (mouse, UniProt Q8C110 23-609).
T5 construct: extracellular domain; also called Mu SLITRK6; not shown: his tag
T5 sequence (Q8C110 23-609): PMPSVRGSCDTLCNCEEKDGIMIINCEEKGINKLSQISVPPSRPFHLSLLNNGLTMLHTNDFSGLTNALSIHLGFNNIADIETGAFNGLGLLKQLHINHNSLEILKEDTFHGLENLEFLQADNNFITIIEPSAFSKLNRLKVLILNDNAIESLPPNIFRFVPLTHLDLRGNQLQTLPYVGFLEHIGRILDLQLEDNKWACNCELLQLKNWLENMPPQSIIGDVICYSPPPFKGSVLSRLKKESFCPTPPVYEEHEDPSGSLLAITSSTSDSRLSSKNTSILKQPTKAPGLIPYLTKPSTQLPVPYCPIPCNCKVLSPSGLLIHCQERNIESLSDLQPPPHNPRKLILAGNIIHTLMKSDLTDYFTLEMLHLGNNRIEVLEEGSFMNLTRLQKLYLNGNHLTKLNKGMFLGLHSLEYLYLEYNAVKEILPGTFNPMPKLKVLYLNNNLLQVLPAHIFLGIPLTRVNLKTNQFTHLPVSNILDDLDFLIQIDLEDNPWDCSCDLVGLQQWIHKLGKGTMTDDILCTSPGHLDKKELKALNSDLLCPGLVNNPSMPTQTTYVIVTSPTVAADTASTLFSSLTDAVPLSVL
Described as above.

For assay [21], the target named is T3, rat SLITRK6. The assay is described as above.
Procedure: as §5
The target in assay [22] is T1, human SLITRK6 extracellular domain …. The assay is described as follows: BLI binning on huSLITRK6-his; Ab1 = row antibody first, then Ab2 (competitor) = hu1H2-03.
Procedure: as §4
Assay [23] shares this target. Put plainly: BLI binning on huSLITRK6-his; Ab1 = row antibody first, then Ab2 (competitor) = phA108.
Procedure: as §4
In assay [24] the target is T4, human SLITRK6 on cells. The assay is described as follows: flow cytometry on RT4 cells. This is another data set of the same source.
Procedure: as §2
The target in assay [25] is T4, human SLITRK6 on cells. The assay is described as follows: flow cytometry on RT4 cells, PE-conjugated anti-human Fc. This is another data set of the same source.
Procedure: as §3
Assay [26] has as its target T1, human SLITRK6 extracellular domain …. Put plainly: BLI; antigen ECD-his on anti-his tips, antibody as analyte; 1:1 fit.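 Also: antibody at several concentrations, 180 s association then 300 s dissociation in Tris buffer at pH 6 or 7.5, rate constants from global fitting, KD computed as koff/kon.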
Procedure: (§6) Binding kinetic of antibody-antigen was characterized by the bio-layer interferometry (BLI). 100 nM of SLITRK6′ extracellular domain linked to his tag was immobilized on anti-his biosensor tips (Fortebio). The sensors were rinsed with the buffer (50 mM Tris-AcOH, pH 6 or 7.5, 0.05% v/v surfactant P20) for 10 min to remove the unbound molecules, then dipped in the antibody solutions at different concentrations for 180 seconds and interspersed by a rinsing step in the buffer solution for 300 seconds. Binding affinity was calculated using ForteBio Data Acquisition 6.3 software (ForteBio) and was derived by fitting the kinetic data to a 1:1 Langmuir binding model utilizing global fitting algorithms. The dissociation or association equilibrium constant KD was calculated from the binding rate constants as KD=koff/kₒₙ(where koff and kₒₙ represent the dissociation kinetic constant and the association kinetic constant, respectively).
Assay [27] addresses T2, cynomolgus monkey SLITRK6 extracellular …. The description is as above.
Procedure: as §6
Assay [28] concerns the target T4, human SLITRK6 on cells. Put plainly: flow cytometry on 293F-huSLITRK6-C9 cells.
Procedure: The binding activity of mAbs was evaluated by flow cytometer (Beckman, Cytoflex). Specifically, cells were incubated with 50 μL of mAbs or ADCs in series dilutions in PBS containing 1% BSA at 4° C. for 30 min. The cells were washed twice with PBS containing 1% BSA, stained with PE-conjugated anti human Fc in PBS containing 1% BSA and then incubated at 4° C. for 20 min. After that the cells were washed twice with PBS and analyzed by a flow cytometer.
Assay [29] concerns the target T1, human SLITRK6 extracellular domain …. The assay is described as follows: BLI binning on huSLITRK6-his; Ab1 = row antibody first, then Ab2 (competitor) = hu14G1-03.
Procedure: as §4
Assay [30] deals with T4, human SLITRK6 on cells. Put plainly: flow cytometry on SW780 cells, PE-conjugated anti-human Fc. This is another data set of the same source.
Procedure: as §1
For assay [31], the target named is T4, human SLITRK6 on cells. The assay is described as follows: flow cytometry on KYSE-30 cells, PE-conjugated anti-human Fc.
Procedure: as §1
Assay [32] has as its target T4, human SLITRK6 on cells. Put plainly: flow cytometry on SCC-4 cells.
Procedure: as §2

B1: Sirtratumab (antibody, V domains shown)
VH: QVQLVESGGGVVQPGRSLRLSCAASGFTFSSYGMHWVRQAPGKGLEWVAVIWYDGSNQYYADSVKGRFTISRDNSKNTLFLQMHSLRAEDTAVYYCARGLTSGRYGMDWGQGTTVTVSS
VL: DIVMTQSPLSLPVTPGEPASISCRSSQSLLLSHGFNYLDWYLQKPGQSPQLLIYLGSSRASGVPDRFSGSGSGTDFTLKISRVEAEDVGLYYCMQPLQIPWTFGQGTKVEIK
notes: Prior-art benchmark antibody; also called Sirtratuzumab
By EC50 is commonly meant the concentration giving half of the maximal effect. By EC50 (read off the curve) is commonly meant the concentration giving half of the maximal effect. What is called Kd is the concentration at which binding is half-saturated. What is called koff is the rate constant with which the complex falls apart. As a reminder, the kon is the second-order rate constant of association. Take B1: the EC50 worked out at 60 pM in [1]; 60 pM in [2]; 880 pM in [3]; 200 pM in assay [5]; 210 pM in assay [6]; 390 pM in [7]. The half-maximal effective concentration (EC50) in assay [8] was 1410 pM; in assay [14] it was 330 pM; in assay [15], 260 pM; in assay [17] it was 250 pM; in assay [24], 200 pM; in [28], 1410 pM. Besides, the 50% effective concentration (EC50 (read off the curve)) was about 1000 pM in [4]; about 200 pM in [9]; about 100 pM in assay [13]; about 300 pM in assay [16]; about 300 pM in [25]; about 200 pM in assay [30]. For the same molecule, the epitope binning signal came out at 0.0645 in [10]; 0.256 in assay [11]; 0.282 in assay [12]; 0.281 in assay [22]; 0.252 in assay [23]; 0.244 in [29]. Further, the dissociation constant (Kd) in assay [18] was determined as 350 pM; in assay [19] it was 1200 pM; in assay [20], 3500 pM; in assay [21], 1500 pM; in [26], 5000 pM; in assay [27] it was 6010 pM. For the same molecule, the koff in assay [26] is 0.00416 s⁻¹; in assay [27] it was 0.0037 s⁻¹. Besides, the association rate constant (kon) in assay [26] is 831000 M⁻¹ s⁻¹; in assay [27] it was 615000 M⁻¹ s⁻¹.

B2: AGS15E (antibody, V domains shown)
VH: B1 VH
VL: B1 VL
modifications: drug conjugate; drug-linker and positions not given
notes: also called ADC of Sirtratumab
Consider B2, for which the “EC50 (read off the curve)” value was about 1000 pM in assay [4]; about 300 pM in [9]; about 200 pM in [13]; about 500 pM in assay [31]; about 200 pM in [16]; about 300 pM in [25]. In assay [30], the “EC50 (read off the curve)” value is about 300 pM. Besides, the dissociation constant (Kd) was 300 pM in [18], 870 pM in assay [19], 1900 pM in assay [20] and 1200 pM in [21].

B3: phA108 (antibody, V domains shown)
VH: QVQLVQSGAEVKKPGASVKVSCTASGYIFNDYYLHWVRQAPGQGLEWVGIINPSGGSPVYAQKFQGRVTMTRDTSTNTVYMELSSLRSEDTAVYYCARGMVRGVRLFDYWGQGTLVTVSA
VL: EIVLTQSPATLSLSPGERATLSCRASQSVSSYLAWYQQKPGQTPRLLIYDASNRATGVPARFSGSGSGTDFTLTISSLETEDFAVYYCQQRTNWPLTFGGGTKVEIK
notes: From phage display, then full-length construction; Only the variable regions are tied to the name
B3: the EC50 in assay [1] worked out at 50 pM; in assay [2] it was 60 pM; in assay [3], 290 pM; in assay [5], 100 pM; in assay [6] it was 140 pM; in assay [7], 270 pM. Also, the EC50 in assay [8] was determined as 870 pM; in [14], 270 pM; in assay [15], 120 pM; in assay [17], 140 pM; in assay [24], 100 pM; in [32], 180 pM. In addition, the EC50 in [28] turned out to be 870 pM. Besides, the epitope binning signal is 0.276 in assay [10]; 0.0375 in assay [11]; 0.285 in [12]; 0.292 in assay [22]; 0.0346 in assay [23]; 0.274 in [29]. The equilibrium dissociation constant (Kd) in assay [26] came to 1050 pM; in assay [27] it was 4690 pM. Besides, the koff in assay [26] turned out to be 0.000969 s⁻¹; in [27], 0.00379 s⁻¹. The on-rate constant (kon) in [26] is 924000 M⁻¹ s⁻¹; in assay [27], 809000 M⁻¹ s⁻¹.
